The target in this assay is human CXCR5 (human) (UniProt P32302). The experiment in a line: cell-based or functional assay.
Sequence of UniProt P32302 (P32302 whole entry): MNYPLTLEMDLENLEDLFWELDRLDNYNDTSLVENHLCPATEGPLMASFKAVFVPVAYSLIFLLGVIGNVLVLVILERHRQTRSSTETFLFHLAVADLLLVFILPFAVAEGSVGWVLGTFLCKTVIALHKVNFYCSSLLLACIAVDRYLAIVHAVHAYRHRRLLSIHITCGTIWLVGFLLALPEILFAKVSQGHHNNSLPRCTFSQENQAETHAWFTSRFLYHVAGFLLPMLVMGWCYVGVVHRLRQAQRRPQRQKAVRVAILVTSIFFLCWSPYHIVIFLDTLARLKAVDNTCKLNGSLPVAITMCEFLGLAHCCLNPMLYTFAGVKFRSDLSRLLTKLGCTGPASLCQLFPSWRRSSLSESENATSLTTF

In turn, “human CXCL13 (from UniProt O43927 23-94) (ligand)” came in with a Ca-flux (FLU) at 0 nM rhCXCL13 (baseline) of 1680 FLU, a Ca-flux (FLU) at 1.95 nM rhCXCL13 of 2220 FLU, a Ca-flux (FLU) at 3.91 nM rhCXCL13 of 1840 FLU and a Ca-flux (FLU) at 7.81 nM rhCXCL13 of 1860 FLU. This substance returned a Ca-flux (FLU) at 16 nM rhCXCL13 of 6160 FLU, a Ca-flux (FLU) at 31 nM rhCXCL13 of 31100 FLU, a Ca-flux (FLU) at 63 nM rhCXCL13 of 51900 FLU and a Ca-flux (FLU) at 125 nM rhCXCL13 of 74700 FLU. Also, the Ca-flux (FLU) at 250 nM rhCXCL13 was 78400 FLU and the Ca-flux (FLU) at 500 nM rhCXCL13 is 68100 FLU.

The values above are taken from patent WO2012010582A1.
